Source: paper doi:10.1101/2020.10.25.354415 (bioRxiv, 2020)
Changes are numbered by the printed parent chain. In names and notes the source's numbering stands.

T1: β-catenin•N-cadherin cytoplasmic tail complex (M. musculus | , UniProt Q02248 1-781; P15116 746-906)
T1 sequence (looked up) 1: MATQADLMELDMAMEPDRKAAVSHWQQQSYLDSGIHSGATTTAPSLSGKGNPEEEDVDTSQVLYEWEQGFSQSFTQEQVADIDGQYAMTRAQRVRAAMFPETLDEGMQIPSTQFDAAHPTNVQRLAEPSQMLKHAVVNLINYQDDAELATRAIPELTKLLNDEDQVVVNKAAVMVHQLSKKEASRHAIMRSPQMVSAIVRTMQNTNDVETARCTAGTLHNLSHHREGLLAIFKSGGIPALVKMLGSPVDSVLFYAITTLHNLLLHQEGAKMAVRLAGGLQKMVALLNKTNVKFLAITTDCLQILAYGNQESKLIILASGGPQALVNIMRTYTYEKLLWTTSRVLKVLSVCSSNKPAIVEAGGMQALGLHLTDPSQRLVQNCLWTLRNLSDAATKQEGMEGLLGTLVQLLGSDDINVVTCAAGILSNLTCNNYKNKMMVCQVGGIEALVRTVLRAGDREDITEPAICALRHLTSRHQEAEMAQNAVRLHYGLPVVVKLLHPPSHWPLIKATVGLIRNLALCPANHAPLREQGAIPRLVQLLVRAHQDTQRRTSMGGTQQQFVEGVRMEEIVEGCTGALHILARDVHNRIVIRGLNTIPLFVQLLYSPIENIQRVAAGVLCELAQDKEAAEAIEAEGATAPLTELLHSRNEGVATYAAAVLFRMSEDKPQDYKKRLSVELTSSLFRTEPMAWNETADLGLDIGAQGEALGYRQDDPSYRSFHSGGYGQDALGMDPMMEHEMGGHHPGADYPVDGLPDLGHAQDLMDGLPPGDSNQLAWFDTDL
T1 sequence (looked up) 2: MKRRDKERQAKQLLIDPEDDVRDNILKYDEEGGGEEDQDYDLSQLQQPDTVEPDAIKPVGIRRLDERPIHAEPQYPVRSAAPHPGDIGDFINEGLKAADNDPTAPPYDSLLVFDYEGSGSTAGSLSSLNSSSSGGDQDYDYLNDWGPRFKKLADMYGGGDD

T2: αT-catenin M1-M3 (aa260-626) (M. musculus, UniProt Q65CL1 260-626)
T2 sequence (looked up): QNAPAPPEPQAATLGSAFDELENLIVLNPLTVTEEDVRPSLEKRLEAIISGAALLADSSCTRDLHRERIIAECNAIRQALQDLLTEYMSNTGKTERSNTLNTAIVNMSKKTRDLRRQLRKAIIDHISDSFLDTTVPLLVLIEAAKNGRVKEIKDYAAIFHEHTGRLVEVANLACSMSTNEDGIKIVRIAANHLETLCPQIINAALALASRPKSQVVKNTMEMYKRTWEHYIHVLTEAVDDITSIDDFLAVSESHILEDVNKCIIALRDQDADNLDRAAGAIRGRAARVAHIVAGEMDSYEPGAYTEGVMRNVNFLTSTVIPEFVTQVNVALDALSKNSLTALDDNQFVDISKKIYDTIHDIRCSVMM

T3: αT-catenin head•β-catenin complex (M. musculus, UniProt Q65CL1 1-659; Q02248 1-781)
T3 sequence (looked up) 1: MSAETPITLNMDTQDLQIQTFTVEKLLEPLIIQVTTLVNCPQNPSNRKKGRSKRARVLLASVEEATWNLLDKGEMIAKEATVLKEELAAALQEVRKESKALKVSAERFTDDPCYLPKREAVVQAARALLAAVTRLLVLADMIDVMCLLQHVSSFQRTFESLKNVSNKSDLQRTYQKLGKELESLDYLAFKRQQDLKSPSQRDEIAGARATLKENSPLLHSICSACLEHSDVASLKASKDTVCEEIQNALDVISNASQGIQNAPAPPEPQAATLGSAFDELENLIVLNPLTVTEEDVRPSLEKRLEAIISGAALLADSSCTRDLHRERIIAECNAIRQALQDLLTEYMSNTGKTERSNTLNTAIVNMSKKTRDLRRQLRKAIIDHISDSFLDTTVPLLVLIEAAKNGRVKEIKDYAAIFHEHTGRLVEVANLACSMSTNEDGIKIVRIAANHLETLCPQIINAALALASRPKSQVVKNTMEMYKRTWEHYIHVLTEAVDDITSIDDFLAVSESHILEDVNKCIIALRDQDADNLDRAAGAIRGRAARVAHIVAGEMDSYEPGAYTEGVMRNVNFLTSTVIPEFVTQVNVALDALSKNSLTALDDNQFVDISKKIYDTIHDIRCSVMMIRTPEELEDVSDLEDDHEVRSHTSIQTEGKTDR
T3 sequence (looked up) 2: T1 sequence (looked up) 1

T4: αT-catenin N2-M3 (aa147-626) (M. musculus, UniProt Q65CL1 147-626)
T4 sequence (looked up): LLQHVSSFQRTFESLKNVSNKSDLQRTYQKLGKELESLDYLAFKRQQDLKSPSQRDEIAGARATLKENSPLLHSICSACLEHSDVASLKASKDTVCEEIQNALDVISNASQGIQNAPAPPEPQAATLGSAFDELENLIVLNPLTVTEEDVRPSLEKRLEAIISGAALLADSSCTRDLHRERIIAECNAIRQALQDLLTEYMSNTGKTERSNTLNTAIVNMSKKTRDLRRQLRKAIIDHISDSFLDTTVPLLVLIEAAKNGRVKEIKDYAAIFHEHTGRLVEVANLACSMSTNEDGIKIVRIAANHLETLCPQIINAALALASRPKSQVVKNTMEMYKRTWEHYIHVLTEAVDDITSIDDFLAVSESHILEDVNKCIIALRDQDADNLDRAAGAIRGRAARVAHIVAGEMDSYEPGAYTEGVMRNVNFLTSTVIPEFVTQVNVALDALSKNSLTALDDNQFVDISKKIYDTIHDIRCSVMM

T5: 2I27-αT-catenin M1-M3(aa259-667)-2I27 (UniProt Q65CL1)
T5 sequence (Q9UI47 whole entry, species assumed, looked up): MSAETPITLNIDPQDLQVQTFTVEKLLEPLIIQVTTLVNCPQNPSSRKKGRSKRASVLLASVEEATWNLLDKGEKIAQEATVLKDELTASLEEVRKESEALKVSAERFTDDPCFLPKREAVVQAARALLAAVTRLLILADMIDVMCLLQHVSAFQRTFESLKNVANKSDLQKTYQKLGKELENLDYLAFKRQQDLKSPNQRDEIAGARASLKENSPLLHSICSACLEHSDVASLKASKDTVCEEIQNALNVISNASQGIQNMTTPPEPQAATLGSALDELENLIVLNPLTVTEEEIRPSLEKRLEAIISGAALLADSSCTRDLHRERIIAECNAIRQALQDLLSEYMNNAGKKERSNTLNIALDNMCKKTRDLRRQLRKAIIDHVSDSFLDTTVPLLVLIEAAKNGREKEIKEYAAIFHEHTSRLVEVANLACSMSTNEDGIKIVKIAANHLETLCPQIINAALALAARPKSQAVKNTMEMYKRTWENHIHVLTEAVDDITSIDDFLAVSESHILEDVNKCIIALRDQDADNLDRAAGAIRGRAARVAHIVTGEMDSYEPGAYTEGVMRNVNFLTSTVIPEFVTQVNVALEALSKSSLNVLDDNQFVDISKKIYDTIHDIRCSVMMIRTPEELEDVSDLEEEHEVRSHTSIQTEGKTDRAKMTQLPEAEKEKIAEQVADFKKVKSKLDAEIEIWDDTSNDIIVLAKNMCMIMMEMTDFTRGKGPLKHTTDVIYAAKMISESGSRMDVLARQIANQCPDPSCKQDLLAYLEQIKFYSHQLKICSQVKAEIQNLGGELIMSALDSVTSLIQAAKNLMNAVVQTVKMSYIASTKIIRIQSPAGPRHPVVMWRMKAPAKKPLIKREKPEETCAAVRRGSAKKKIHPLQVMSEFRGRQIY

T6: β-catenin (M. musculus, UniProt Q02248 1-781)
T6 sequence (looked up): T1 sequence (looked up) 1

B1: αT-catenin V94D N1-N2 (domain or fragment, M. musculus, UniProt Q65CL1 1-259, looked up)
chain: MSAETPITLNMDTQDLQIQTFTVEKLLEPLIIQVTTLVNCPQNPSNRKKGRSKRARVLLASVEEATWNLLDKGEMIAKEATVLKEELAAALQEDRKESKALKVSAERFTDDPCYLPKREAVVQAARALLAAVTRLLVLADMIDVMCLLQHVSSFQRTFESLKNVSNKSDLQRTYQKLGKELESLDYLAFKRQQDLKSPSQRDEIAGARATLKENSPLLHSICSACLEHSDVASLKASKDTVCEEIQNALDVISNASQGI
B2: αT-catenin N1-N2 (aa1-259) (domain or fragment, M. musculus, UniProt Q65CL1 1-259, looked up)
chain: B1 chain with D94V
B3: vinculin D1 (aa1-259) (domain or fragment, UniProt P12003 1-259, looked up)
chain: MPVFHTRTIESILEPVAQQISHLVIMHEEGEVDGKAIPDLTAPVSAVQAAVSNLVRVGKETVQTTEDQILKRDMPPAFIKVENACTKLVRAAQMLQADPYSVPARDYLIDGSRGILSGTSDLLLTFDEAEVRKIIRVCKGILEYLTVAEVVETMEDLVTYTKNLGPGMTKMAKMIDERQQELTHQEHRVMLVNSMNTVKELLPVLISAMKIFVTTKNTKSQGIEEALKNRNFTVEKMSAEINEIIRVLQLTSWDEDAWA
B4: αT-catenin head region (aa1-659) (domain or fragment, M. musculus, UniProt Q65CL1 1-659, looked up)
chain: T3 sequence (looked up) 1

What was measured:
[1] = biological target: the molecule itself; experiment: SEC
[2] = biological target: T1, β-catenin•N-cadherin cytoplasmic tail …; experiment: ITC
[3] = biological target: T2, αT-catenin M1-M3 (aa260-626); experiment: ITC
[4] = biological target: B4; experiment: ITC
[5] = biological target: T3, αT-catenin head•β-catenin complex; experiment: ITC
[6] = biological target: T4, αT-catenin N2-M3 (aa147-626); experiment: ITC
[7] = biological target: T5, 2I27-αT-catenin M1-M3(aa259-667)-2I27; experiment: ITC
[8] = biological target: T6, β-catenin; experiment: ITC

Binder: B1
stoichiometry N [1]: 2

Binder: B2
Kd [2]: 7 nM

Binder: B3
Kd [3]: 50 nM | Kd [4]: ~5000 nM | Kd [5]: ~3000 nM | Kd [6]: 50 nM | Kd [7]: 250 nM

Binder: B4
Kd [8]: ~250 nM | Kd [2]: 5 to 6 nM
